Test results from patent US20070172423A1, “Composition and method for modulating vasculogenesis for angiogenesis” (priority 1998, published 2007).

Tests used:
[1] = test system: ischemic myocardium; assay: Myocardial ischemia mouse model, Example 18
Protocol: Acute myocardial ischemia and hind limb ischemia mouse models were performed as previously described (Luttun et al., Nat Med, 2002 1:1; Heymans et al., Nat Med, 1999 5:1135-42). Subcutaneously implanted osmotic minipumps (Alzet, type 2001) were used for continuous protein delivery for 7 days. Human PDGF-CC core domain protein was produced as described (Li et al., Nat Cell Biol, 2000 2:302-309). Fluorescent or color dye microspheres (yellow, 15 μm, Molecular Probes) were administered after maximal vasodilatation (sodium nitroprusside, 50 ng/ml, Sigma) for blood flow measurement, and flow was calculated as described (Carmeliet et al., Nat Med, 1999 5:495-502). For histology, the hearts were harvested seven days after LAD ligation, and sectioned longitudinally (6 μm). Infarcted areas were morphologically inspected after immunohistochemistry staining using thrombomodulin (rabbit anti-TM, for all vessels) and smooth muscle alpha-actin (mouse anti-SMA, for mature SMC covered vessels, Dako), and vessel densities calculated. Gastrocnemius muscles after femoral artery ligation were sectioned transversally and analysed after H&E or immunostainings with the EC marker CD31 (PECAM, rat anti-CD31, Pharmingen). Vessel densities and tissue necrosis/regeneration in the gastrocnemius muscle were analyzed morphometrically using the KS300 image analysis soft ware (Zeiss). Remodeling of collateral vessels in the upper hindlimb after femoral ligation was quantified as reported (Luttun et al., Nat Med, 2002 1:1).
A previously established mouse model of myocardial ischemia was used to assess whether PDGF-CC is capable of stimulating the revascularization of ischemic myocardium. After coronary ligation, new vessels revascularize the ischemic core from its surrounding border region. For PDGF-CC to stimulate new vessel growth, its receptor, PDGFR-α, should be expressed in the heart. […] To examine whether PDGF-CC could stimulate revascularization of the ischemic myocardium, we delivered, using a minipump, continuously over one week after coronary ligation, recombinant human PDGF-CC core domain protein, which is known to bind and activate PDGFR-α (Li et al., Nat Cell Biol, 2000 2:302-309). […] After seven days, angiogenesis was quantified by counting the number of endothelial cell (EC)-lined vessels in the ischemic area after immunolabeling with thrombomodulin (TM). Vessel maturation (arteriogenesis) was evaluated by counting the arterioles, immunoreactive for smooth muscle cell α-actin (SMA).

[2] = test system: HMVEC; assay: HMVEC proliferation assay; assay type: cell-based, human; conditions: 50 ng/ml, 7 days
Protocol: (§1) Cell migration assays were performed on growth arrested confluent HMVEC, BAEC or hSMC cells. Cell monolayers were wounded with a rubber policeman and washed with serum-free medium. Dishes were then incubated for 20 hours in serum-free medium containing VEGF165, PDGF-AA, (R&D Systems, Minneapolis USA) or PDGF-CC. Each assay included two dishes per condition and was repeated three times independently. Cells were photographed at 40× magnification, and migration percentage corresponding to the ratio between area of the cells and the total area of the wound (Biocom visiol@b 2000 version 4.52, San Diego). For HMVEC proliferation assay, cells were seeded in 96-well plates (5 wells per condition), and incubated with VEGF, PDGF-AA, or PDGF-CC (50 ng/ml) after serum starvation. After 7 days, viable cells were counted using the cell Titer-glo luminescent cell viability assay. For NIH-3T3 and hSMC proliferation assay, cells cultured in 96-well plates were serum-starved overnight, followed by treatment with growth factors at different concentrations. Two days later, cell numbers were counted and proliferation percentage calculated, using cells cultured in medium containing 10% serum as control. Aortic ring assay was performed as described 51. […] Aortic rings were analysed at day 9 of culturing. […]

[3] = test system: human microvascular endothelial cells (HMVEC); assay: Cell migration assay, HMVEC; assay type: cell-based; conditions: wounded monolayer, 20 hours, serum-free medium
Protocol: as §1

[4] = 4.5 μg/day, minipump, seven days

B1: PDGF-CC: recombinant human PDGF-CC core domain homodimer, residues 230-345 of full-length PDGF-C (SEQ ID NO:40), produced in baculovirus infected insect cells (protein)
chain: GRKSRVVDLNLLTEEVRLYSCTPRNFSVSIREELKRTDTIFWPGCLLVKRCGGNCACCLHNCNECQCVPSKVTKKYHEVLQLRPKTGVRGLHKSLTDVALEHHEECDCVCRGSTGG
modifications: homodimer; PDGF-C core domain
TM-positive vessel density ([1]; 1.5 μg/day, minipump, seven days): minimally affected
SMA positive vessels ([1]; 1.5 μg/day, minipump, seven days, ischemic area): 53.1±3.7 vessels/mm^2
increase in number of SMA-positive arterioles ([1]; 1.5 μg/day, minipump, seven days, vs saline): 1.36 fold
angiogenesis (TM-positive vessels in ischemic area) [1, 4]: significantly stimulated
arteriogenesis (SMA-positive arterioles in ischemic area) [1, 4]: significantly stimulated
blood flow (perfusion of the ischemic myocardial region) ([1]; 4.5 μg/day, n=7-9): 2.2 ± 0.2 mL/min/g
hemorrhage, edema or fibrosis in treated hearts ([1]; minipump, seven days): No signs of hemorrhage, edema or fibrosis
tolerability (weight loss, inactivity) ([1]; minipump, seven days): no signs of toxicity
vessel density in other organs ([1]; non-ischemic organs): no differences
EC proliferation [2]: no effect
migration of HMVECs [3]: stimulated
